Laboratory results as given in IntAct's records for PubMed 18509061.

B1: Histone deacetylase 7 (Mus musculus), Q8C2B3-1 (parent)
chain: MHSPGAGCPALQPDTPGSQPQPMDLRVGQRPTVEPPPEPALLTLQHPQRLHRHLFLAGLHQQQRSAEPMRLSMDPPMPELQGGQQEQELRQLLNKDKSKRSAVASSVVKQKLAEVILKKQQAALERTVHPSSPSIPYRTLEPLDTEGAARSVLSSFLPPVPSLPTEPPEHFPLRKTVSEPNLKLRYKPKKSLERRKNPLLRKESAPPSLRRRPAETLGDSSPSSSSTPASGCSSPNDSEHGPNPALGSEADGDRRTHSTLGPRGPVLGNPHAPLFLHHGLEPEAGGTLPSRLQPILLLDPSVSHAPLWTVPGLGPLPFHFAQPLLTTERLSGSGLHRPLNRTRSEPLPPSATASPLLAPLQPRQDRLKPHVQLIKPAISPPQRPAKPSEKPRLRQIPSAEDLETDGGGVGPMANDGLEHRESGRGPPEGRGSISLQQHQQVPPWEQQHLAGRLSQGSPGDSVLIPLAQVGHRPLSRTQSSPAAPVSLLSPEPTCQTQVLNSSETPATGLVYDSVMLKHQCSCGDNSKHPEHAGRIQSIWSRLQERGLRSQCECLRGRKASLEELQSVHSERHVLLYGTNPLSRLKLDNGKLTGLLAQRTFVMLPCGGVGVDTDTIWNELHSSNAARWAAGSVTDLAFKVASRELKNGFAVVRPPGHHADHSTAMGFCFFNSVAIACRQLQQHGKASKILIVDWDVHHGNGTQQTFYQDPSVLYISLHRHDDGNFFPGSGAVDEVGTGSGEGFNVNVAWAGGLDPPMGDPEYLAAFRIVVMPIAREFAPDLVLVSAGFDAAEGHPAPLGGYHVSAKCFGYMTQQLMNLAGGAVVLALEGGHDLTAICDASEACVAALLGNKVDPLSEESWKQKPNLSAIRSLEAVVRVHRKYWGCMQRLASCPDSWLPRVPGADAEVEAVTALASLSVGILAEDRPSERLVEEEEPMNL
partner: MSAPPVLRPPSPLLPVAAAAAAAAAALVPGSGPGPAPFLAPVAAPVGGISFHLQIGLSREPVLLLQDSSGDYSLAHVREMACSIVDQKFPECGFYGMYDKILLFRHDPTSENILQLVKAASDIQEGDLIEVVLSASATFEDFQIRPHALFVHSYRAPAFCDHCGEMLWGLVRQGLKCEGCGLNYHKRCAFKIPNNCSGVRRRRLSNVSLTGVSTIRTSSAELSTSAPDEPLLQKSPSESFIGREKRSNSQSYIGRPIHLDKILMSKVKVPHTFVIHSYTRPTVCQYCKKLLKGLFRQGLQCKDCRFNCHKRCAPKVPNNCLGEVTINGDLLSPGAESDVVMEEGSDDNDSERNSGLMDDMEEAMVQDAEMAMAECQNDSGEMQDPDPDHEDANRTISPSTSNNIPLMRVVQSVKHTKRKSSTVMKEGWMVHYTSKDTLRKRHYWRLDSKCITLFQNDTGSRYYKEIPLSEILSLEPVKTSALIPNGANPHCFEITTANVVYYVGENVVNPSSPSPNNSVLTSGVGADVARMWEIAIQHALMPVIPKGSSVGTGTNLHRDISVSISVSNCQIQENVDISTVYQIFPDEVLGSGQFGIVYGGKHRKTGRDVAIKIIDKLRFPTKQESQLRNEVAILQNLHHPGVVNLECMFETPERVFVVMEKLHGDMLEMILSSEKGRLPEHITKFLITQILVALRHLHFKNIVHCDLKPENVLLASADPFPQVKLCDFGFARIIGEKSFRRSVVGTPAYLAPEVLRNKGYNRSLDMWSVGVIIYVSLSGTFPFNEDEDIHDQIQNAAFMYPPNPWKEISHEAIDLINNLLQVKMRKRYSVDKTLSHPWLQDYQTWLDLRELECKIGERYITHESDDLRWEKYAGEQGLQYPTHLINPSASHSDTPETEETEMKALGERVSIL

Variants of: B1
Conditions: with kpcd1_human PRKD1, Q15139

Row | effect of a mutation on the interaction | Variant
1 | increasing interaction strength | S178A;S344A;S479A
